Biological target: the molecule itself
Assay: cryo-EM structure; single-particle cryo-EM of purified Panx2-NT (Superose 6 peak at 16.0 ml), 50 mM Tris pH 7.5, 150 mM NaCl, 0.02% GDN, ~10 mg/ml; C1 map without imposed symmetry, final refinement with C7 symmetry at ~3.4 Å

B1: human pannexin 2 N-terminal domain (Panx2-NT, amino acids 1-410) (domain or fragment, UniProt Q96RD6-3 1-410, looked up)
chain: MHHLLEQSADMATALLAGEKLRELILPGAQDDKAGALAALLLQLKLELPFDRVVTIGTVLVPILLVTLVFTKNFAEEPIYCYTPHNFTRDQALYARGYCWTELRDALPGVDASLWPSLFEHKFLPYALLAFAAIMYVPALGWEFLASTRLTSELNFLLQEIDNCYHRAAEGRAPKIEKQIQSKGPGITEREKREIIENAEKEKSPEQNLFEKYLERRGRSNFLAKLYLARHVLILLLSAVPISYLCTYYATQKQNEFTCALGASPDGAAGAGPAVRVSCKLPSVQLQRIIAGVDIVLLCVMNLIILVNLIHLFIFRKSNFIFDKLHKVGIKTRRQWRRSQFCDINILAMFCNENRDHIKSLNRLDFITNESDLMYDNVVRQLLAALAQSNHDATPTVRDSGVQTVDPSAN
modifications: N-glycosylated on N86 (extra density observed near N86)
notes: Pannexin 2 (PANX2), H. sapiens, NCBI NP_443071.2, 677 residues in full; construct Panx2-NT holds amino acids 1-410, made to mimic the caspase-cleaved truncation; the model holds residues 41-184, 188-266, 273-373 and 377-388; also called C-terminal truncated Panx2; human N-terminal Panx2; source: HEK293F, transient transfection (PEI), purified (DDM solubilisation, anti-FLAG M2 agarose, Superose 6 …)
- stoichiometry N: 7
